Data from the supplement of paper PMC12042874.
± gives the uncertainty stated by the source.

assay: amyloid nucleation score (Sup35N fusion, yeast selection) (log enrichment); library NNK1; higher = more nucleation; inactive = no reads after selection
Summary of the method: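 Output and input plasmid inserts were sequenced by Illumina after psi-negative yeast carrying Sup35N fused to peptides of 20 random codons had been induced 24 hours with 100 μM copper sulfate and grown 7 days at 30°C on medium lacking adenine and uracil. The nucleation score is the DiMSum log enrichment of output over input reads, centred on the mode score of non-aggregating sequences. Sequences with under 100 input reads were excluded.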

| Substance | amyloid nucleation score |
| --- | --- |
| QYRRVSILSSVLLYCPNYCQ | -1.38 ± 2.7 |
| FGHKCAIFGNWEF | -0.933 ± 0.84 |
| YAINMVYYV | 1.16 ± 0.29 |
| NRHVSRRRHSEISLVRKGGA | -0.313 ± 0.33 |
| HRAWAQVFFPELARSLVRSQ | 0.216 ± 0.6 |
| GNYSIARGLKNDKWCFFSSY | -0.234 ± 1.6 |
| GKRLQ | -0.249 ± 1.2 |
| IATGMWLYVSLVTPQHSLVN | 0.101 ± 0.49 |
| CGFDRMAMYWVNFDLHWSSA | 0.121 ± 0.36 |
| ILKEIMIGGRDRTDDWKSHG | -1.3 ± 0.8 |
| DCWRRYYSSLLITVGGLFYK | -0.014 ± 0.34 |
| VGPRGSGPWGGVCLCGCSKE | 1.11 ± 0.51 |
| CLVVPCD | 0.151 ± 0.42 |
| SYNRIILTFWSFLL | 1.13 ± 0.35 |
| SRLIY | -0.894 ± 0.4 |
| PEAGGLHARYVYFVWNSAPC | 2.69 ± 0.28 |
| DYAGWPYLPSMHQATLQDAR | 0.275 ± 1.2 |
| YFMFSLCSYSNYWLRWGFV | 0.121 ± 0.22 |
| FICERPGSRKTTLPTVTVIR | -0.499 ± 0.98 |
| LRYASEGSKFFVWNLTYLNR | -0.147 ± 1.2 |
| TRWIRYTFRFS | 1.61 ± 0.13 |
| NDDVSVSVSWPDMEVRWK | -0.179 ± 0.29 |
| NPGAYKYHSLSYTSRGGMFV | 0.486 ± 0.38 |
| MVRWFWVVGHQVFTYVRLWR | -0.076 ± 0.74 |
| FVNFWN | 0.473 ± 0.53 |

| Substance | amyloid nucleation score |
| --- | --- |
| SSLKDSNLWSEIGTLWLTVM | -0.091 ± 0.25 |
| YLSMFVWTGGNM | 2.08 ± 0.31 |
| QRILTSYGRDMLTSLLRSMP | 1.01 ± 0.58 |
| VSTIFHIGFVLKFRDYRESE | 2.93 ± 0.18 |
| FNRKISFFCN | -0.393 ± 0.4 |
| PERTSMGSKFTTDN | -0.382 ± 0.43 |
| RALAVSRMRAYPSLRGEYLN | 0.076 ± 1.2 |
| GMDCH | -0.175 ± 0.25 |
| KSQCWRSGLVLFNA | -0.243 ± 0.36 |
| YACESGMEIMHYRHMSGGVV | 0.732 ± 1 |
| IFVVGKGDLGCCQI | 0.967 ± 0.35 |
| RFLVFC | inactive |
| VTLGHHDRSCFYEDSVQTRD | 0.832 ± 0.49 |
| TTYRCNVKYQYFMFNDIEFF | 3.54 ± 0.21 |
| ECCYWPREK | 0.422 ± 0.32 |
| DGNNNKLVMVLWLSYADYRW | inactive |
| NAVSIRGLRVDRQN | 0.112 ± 0.55 |
| HSAITNCRRVVTALIYRRVM | -0.875 ± 2.4 |
| LDVTSDFCTMI | 0.5 ± 0.38 |
| AYETLR | -0.385 ± 0.59 |
| IKLQWS | -0.323 ± 0.53 |
| QPPKHMTMYVYVDTHEAVLS | -0.133 ± 0.38 |
| YCDRDLKNKVLSNV | -0.132 ± 0.42 |
| HSALIQSIEGVINVGCGVKK | 1.25 ± 0.23 |
| LIDRHSFVRGRIRVSSVVVC | inactive |

| Substance | amyloid nucleation score |
| --- | --- |
| CDTFYLLVLALTYWEWANLE | -0.497 ± 0.99 |
| VHSGTKEKGF | 1.05 ± 0.54 |
| YWDGYEVDVNGVREYEGNAV | 0.305 ± 0.19 |
| HFCFGC | 7.377 ± 0.062 |
| QKPTMFGA | -0.338 ± 0.28 |
| GQAWCTLTCRGTGPSQLGWV | -0.508 ± 0.57 |
| RSDWFHMCNNT | 2.38 ± 0.089 |
| NCYMT | 0.386 ± 0.31 |
| QRSLMDAPMGKPRESNLLLV | 1.1 ± 0.57 |
| TCRDYCASVSEEQIWLMVYR | 0.297 ± 0.67 |
| CRFMSVICHTLFWTPLTFYY | 0.592 ± 0.83 |
| MDVIFGLMS | 0.729 ± 0.51 |
| KLVTAPISKSLF | 0.55 ± 0.92 |
| DFVRMSRPHG | 0.563 ± 0.51 |
| GRGQWQPAFTKLPYLILSVV | -0.152 ± 0.94 |
| GWMNCHNSTWRVGQALSSSR | 0.282 ± 0.48 |
| NLWLPAWCGLYQCNTGHSGY | 7.996 ± 0.043 |
| TLVLYVKRCWESGLISNECF | -0.699 ± 1.5 |
| NMEITYLSVFVAVYVHLHFF | -0.728 ± 0.88 |
| FNWDGQFAVCMWKS | -0.221 ± 0.38 |
| LSLFCVLMY | 2.1 ± 0.27 |
| LLDSNHSVLYFIFGLVT | 1.27 ± 0.42 |
| DVYVWGGCLVSIKVLWMAWG | 0.117 ± 0.94 |
| GNLVCGCVVLQIMHIERGMA | 7.481 ± 0.046 |
| FKLMWNFQDLLVLLLRDRRY | 0.048 ± 0.62 |

| Substance | amyloid nucleation score |
| --- | --- |
| MRMISFKTVGALFVYCLSLG | 0.313 ± 0.49 |
| WNTMWRHLGIYFKY | 0.249 ± 0.38 |
| ARFMLAWEVNCQG | 1.39 ± 0.22 |
| RDMVKLHVHTLHCNDDILGL | -0.896 ± 0.62 |
| DYYYSFMKTANR | -0.087 ± 0.3 |
| ASAMLMHF | 0.716 ± 0.2 |
| LMFGRKCMLSLFPVRFHRCH | 0.378 ± 0.9 |
| NKIQQGYMSPYCNHSVFVSF | -0.296 ± 0.65 |
| YALRFFDDYESAAGSVR | -0.454 ± 0.66 |
| TSSFFTDIDFNG | -0.363 ± 0.7 |
| MCGFF | -0.178 ± 0.57 |
| FSSNLLECRCLWKTQASNST | 0.271 ± 0.33 |
| NFHDEV | -1.22 ± 1.5 |
| YNSWFI | 0.586 ± 0.55 |
| NNRKYLGRNMAANWGAWFKR | -0.395 ± 0.36 |
| TSEDMC | -1.18 ± 2.1 |
| LFAPPYLLAVMEE | 0.97 ± 0.72 |
| GYSCRVIWNTNWTALFT | inactive |
| PCVQSHMCYYNMSGITKGFR | -0.332 ± 0.43 |
| AFMGPWEPFLVHFTRRPSPY | -0.856 ± 2.4 |
| GGDRGHMFGMKSATVRWLAY | 0.572 ± 0.45 |
| ILRRRMHDG | 0.247 ± 1.4 |
| YLCQRHSFTRSRYHFLLRPV | -1.02 ± 1.2 |
| TNTFFLTILHPRFVKMGPCW | 4.55 ± 0.1 |
| HILTMDLLPTPLSRQLRNMN | -0.763 ± 0.97 |

| Substance | amyloid nucleation score |
| --- | --- |
| SWFIL | 0.428 ± 0.85 |
| RVFLTSLEDRVHTLGQATNT | 1.39 ± 0.5 |
| NFVGFL | -0.33 ± 0.58 |
| LTIRQWRFITAVGDLFLWMR | 0.331 ± 0.58 |
| CAKGGPSGYKN | -1.41 ± 0.98 |
| SYKLAVIRKM | -0.28 ± 0.24 |
| TSILAKNIIYCHYVGFPLGC | 5.97 ± 0.093 |
| HFNYNNTSMFSLTHSWHGIM | 4.71 ± 0.089 |
| STVFNGSGGEDVKKCPPHA | inactive |
| DIGLREFNWVTNITTLPQLG | 1.33 ± 0.61 |
| TVIYSNYAVICMGSMSQVDT | 7.762 ± 0.059 |
| GFVGFTGF | 0.308 ± 0.77 |
| VIVCIEAAAETYSTGQSLDA | -0.15 ± 0.3 |
| GYWGPVFSGRCIPVNNK | -0.186 ± 1.5 |
| PWYTRLRRK | -0.338 ± 1.4 |
| VWSKVLGSGRWSVVRGRAWR | 1.63 ± 0.21 |
| DSADMLILILYAAVLLYTIF | -0.278 ± 0.69 |
| RGSWIPVKQRLKVPQRDGLG | 0.207 ± 0.28 |
| VKTINFISQLSCWCKRPFRK | 8.673 ± 0.06 |
| QGIEKGFDWKRIFCGELYVQ | -0.065 ± 0.4 |
| SLRFQSYRAWSMGWKLDDSC | 0.821 ± 1.1 |
| CRGFFLGFPIHQVKAFCFCR | -0.047 ± 1.7 |
| GLETNNLARLVCGSRCFLSD | -0.894 ± 2.4 |
| DSCLSYFAILYFRLGFTRMW | inactive |
| RLPRQYVMG | -0.279 ± 0.66 |

| Substance | amyloid nucleation score |
| --- | --- |
| PHGKRPGHFLKVLLAFSWRW | 0.038 ± 0.56 |
| RSVCYIKNPVVAREFLVLSA | inactive |
| NSIVVTT | 0.114 ± 0.54 |
| SDMLYLQLVKLASWFHFNLK | -0.199 ± 0.38 |
| CPLRIIQLMCTNRGLMGRLG | -0.071 ± 0.31 |
| PYKIEWLSRTHTAGSYSLQP | -0.135 ± 0.44 |
| ARERGCRSAH | 0.332 ± 0.42 |
| IYINVP | 0.764 ± 0.38 |
| LFFHSKYMQRLKL | 0.183 ± 0.72 |
| IVFNIYLILAKWWVTVTYSD | -1.25 ± 0.5 |
| ENIALIYLECVFKVGSRCFE | 0.198 ± 0.24 |
| YWGARNCLLYWWYGLTTEGS | 0.028 ± 0.44 |
| ALRRIGSFVVHLDIRAVSQT | 1.09 ± 0.5 |
| CNSLTLFRWYFNMVGNIQAN | -0.143 ± 0.37 |
| FIWIGRKRRGGICCDEWKYG | 0.196 ± 1.6 |
| CPMWYYCRSVLSSLAVSDCS | inactive |
| QFRCFHLL | -0.026 ± 1.2 |
| EGLLFYEYSSMCVEKDWIKN | -0.136 ± 0.43 |
| RIRVDVEWSARRPG | 2.19 ± 0.17 |
| YVPMRETGCRDSTYIEWFWY | -0.057 ± 0.24 |
| LDRMFSVVRNNVTTSVLSEK | 0.234 ± 0.32 |
| SLWITFLPLIGLSAVRRRVR | -1.24 ± 1.4 |
| FLFLTRRWEFVHMLPVSCEV | -0.817 ± 2.4 |
| PLCEKSGCSLNFDEERQTLW | 1.43 ± 0.51 |
| LVRAIIANCAYFCQFRFSLG | 0.944 ± 0.69 |

| Substance | amyloid nucleation score |
| --- | --- |
| FKSASVRRI | -0.822 ± 0.84 |
| LGCLFNAGAFWAYGGMVSLH | -0.024 ± 0.57 |
| YFAVWSSRDTFRFYLILINP | -0.427 ± 0.33 |
| GGESQFLGFTHCKLAFCSWW | 0.236 ± 0.5 |
| TDSCYHCNLYMYHSS | 0.723 ± 0.9 |
| QYSCN | 1.72 ± 0.46 |
| GDSVESQILLVVGCIY | -0.416 ± 1.2 |
| TIGLCAMYSAARLLV | 0.717 ± 0.93 |
| GRNTGFFHFLWLFRYVTLVM | -1.58 ± 1.7 |
| LFCFNRVD | inactive |
| YSSSPVFGCEAPGDYQLGY | 1.24 ± 0.76 |
| YDVLEDSHELMMCFCVRGHW | -0.155 ± 1 |
| INVWNLSWGNMIRAKNHLGV | -0.107 ± 0.53 |
| GIHSLFMVAIYFAYWLRKWV | -0.877 ± 1.6 |
| PYLGNLNSLQGFYLS | 0.176 ± 0.78 |
| YFRSSGGAFFGNLDVCGNYV | 0.124 ± 0.48 |
| WSNTCRASYFRPCGCG | 0.391 ± 0.39 |
| YVSADLGMYTVDGAEFYCEN | 0.106 ± 0.43 |
| WKDRPRVCLFMLLNENGRQM | -0.831 ± 1.2 |
| TTVLRGLKTP | -0.825 ± 1.5 |
| MMYSIVRMLAFNAWSMR | 0.681 ± 0.49 |
| ERLFELKCPNFCAELGSDS | 0.24 ± 0.41 |
| TSGFKLGRSGGYVCRS | 1.41 ± 0.78 |
| FSDTRTGGDSTPKN | 0.108 ± 0.36 |
